“Also recorded” adds a separate entry of the source. One block for each molecule: values may come before it.
Legend:
ldLIMP2 = biological target: T1, ldLIMP2 (Homo sapiens, UniProt Q14108); assay: Immunoprecipitation of alanine substituted GCases (TKD sequence) with ldLIMP2; assay type: binding; details: GCase:LIMP2 1:1, immunoblot, FIG. 6
T1 construct: Purified luminal domain LIMP-2 (1d-LIMP2) was custom made (Sino Biological Inc., PRC.); purchased Sino Biological Inc
T1 sequence (Q14108 28-433 limits assumed): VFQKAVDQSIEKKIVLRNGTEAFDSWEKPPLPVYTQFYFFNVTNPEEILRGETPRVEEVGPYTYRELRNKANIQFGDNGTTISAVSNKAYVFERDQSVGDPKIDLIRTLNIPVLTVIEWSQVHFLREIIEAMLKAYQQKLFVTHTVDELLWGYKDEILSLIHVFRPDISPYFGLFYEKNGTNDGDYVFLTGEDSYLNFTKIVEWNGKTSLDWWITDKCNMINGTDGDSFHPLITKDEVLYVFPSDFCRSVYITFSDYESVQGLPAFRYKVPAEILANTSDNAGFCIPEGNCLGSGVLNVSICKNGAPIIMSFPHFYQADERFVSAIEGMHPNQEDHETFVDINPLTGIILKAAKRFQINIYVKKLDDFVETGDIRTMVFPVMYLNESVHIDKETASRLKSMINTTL
Source text: FIG. 6A-6E: Immunoprecipitation of the alanine substituted GCases in the TKD sequence with ldLIMP2. In panels shown in FIG. 6A to FIG. 6D, the lanes 1 through 6 correspond to the band densities indicated by the bars in FIG. 6E. […] The quantitative results are shown in (FIG. 6E) in which 1, 2, 3, and 4 correspond to WT, AAA, AKA, and AKD, respectively.
Immunoprecipitation of GCases with mutations in the TKD sequence: For immunoblots, Gba1 knockout mouse fibroblasts (null/null) were transfected with the GBA1 constructs (WT or mutants) and expressed for 5 days. The GCases from harvested cell lysates were purified using a GCase antibody affinity column (Dynabeads protein G crosslinked (BS3) with rabbit anti-human GCase antibody). The purified GCases were then mixed with LIMP2 (1:1), incubated (30 min.), and applied to another affinity column (Dynabeads protein G crosslinked (BS3) with rabbit anti-LIMP2 antibody). Aliquots of each step (loading, wash and eluent) were collected and analyzed on 12.5% SDS gels. Immunoblots were developed using anti-human GCase antibody and AP conjugated color development kits. Mock experiments with either non-LIMP2 proteins added or no GCases added, were used as control. The quantitations of these immunoprecipitation data were obtained from densitometry measurements of the gels. The no-LIMP-2 bars are the controls for comparison, since GCase was processed through all steps without LIMP-2 to account for any losses of GCase; About 50% of the GCase was lost during processing.

[1] = test system: Gba1 null/null mouse fibroblasts; assay: Immunofluorescence co-localization of expressed GCase constructs (lysosome vs ER/Golgi); assay type: cell-based; details: for localization of GCase DSPIIV variants to the lysosome (Lamp1 / LIMP-2 co-localization), in words: transient transfection, FIG. 10A
Source text: Immunofluorescence studies (IF): Mouse Gba1 null/null were used for the host cells for all transfection experiments. pCMV-AC-GFP Mammalian cell expression vector was used for expression of various GCases that included the TKD region (amino acids 407, 408 and 409) or the DSPIIV (SEQ ID NO 15) region (amino acids 399-404). Direct-labeled first antibodies were applied for IF detection; including anti-human GCase, -Calreticulin, -calnexin, -LIMP2, and -Lamp1. Lysotracker and ER tracker (Invitrogen) were also used as indicated. Analyses were done with a Zeiss AxioVert 200M with ApoTome. Co-localization analyses to obtain Pearson Indices were conducted using a module in the Axiovision 4.8 software.
Initial studies to localize the targeting peptide were conducted with GCase-GFP fusion constructs that had COOH-terminal deletions of GCase (FIG. 1). The constructs are designated as GCase-XX or XXX where the Xs represent the number of GCase amino acids deleted from the COOH-terminus. These constructs were transfected into and expressed in Gba1 null/null mouse fibroblasts using the CMV promoter (pCMV-AC-GFP or YFP) Immunofluorescence analyses using anti-human GCase IgG (green) and Lysotracker (Red) were used for colocalization of GCase to the lysosome (Red) or GCase (green) and Calreticulin or Calnexin (Red) for colocalization to the ER or Golgi (FIG. 2). […] Since LIMP-2 is the receptor for targeting of GCase to the lysosome, our working hypothesis was that the peptide sequence for binding of GCase to LIMP-2 was located within amino acids 347-422.

Gba1−/− cells = assay: Proportion of GCase protein in cells and media; assay type: cell-based, mouse; details: for % Secreted: ng GCase in media / (ng in media + ng in lysates) × 100
Source text: (§1) FIG. 11A-FIG. 11C: Secretion and retention of GCase with alanine variants in the TDK (FIG. 11A) or DSPIIV (SEQ ID NO 15) (FIG. 11B and FIG. 11C) sequences. FIG. 11A depicts activities in the media of Gba1−/− fibroblasts following transient transfections of each of the specified alanine substituted GCases in the TDK region. […] FIG. 11B depicts in the Left Panel: Activities in the media following transient transfections of various DSPIIV (SEQ ID NO 15) alanine substituted GCases and the % of GCase secreted. The latter was calculated as {ng GCase (in media)/[ng GCase (in media)+ng (GCase in lysates)]}×100 (also see Table 2). […] The transfections alone (Null+lipo) had no effect. […] FIG. 11C deicts in cellular lysate GCase activities from the various alanine substituted GCases in the DSPIIV (SEQ ID NO 15) sequence as indicated. […] The doubly alanine substituted GCase had little intracellular activity, i.e., nearly all the GCase was secreted into the media.

Gba1−/− fibroblasts = assay: GCase activity in media and cell lysates after transient transfection (secretion and retention); assay type: cell-based, mouse; details: for GCase activity in the media / secretion, in words: FIG. 11A, 11B
Source text: as §1
(§2) Enzyme Assays: Cell pellets were homogenized in 0.25% Na-taurocholate and 0.25% Triton X-100. GCase activities were determined fluorometrically with 4 mM 4MU-Glc in 0.2M/0.1M citric-phosphate, pH 5.6 (18, 54)

[2] = CRIM specific activity of GCase variants (activity per cross-reacting immunological material); assay type: biochemical; details: FIG. 11B right panel
Method: as §2
Corresponding effects on the secretion of GCases from the cells containing various mutations in DSPIIVDITDK were found by assessing the activity of GCases in the media and cell lysate (FIG. 11 A-C). […] Using this assessment, the ratio of CRIM specific activities relative to WT (assigned 100%) for AAA, TAD, and AKA were 20%, 32%, and 49%, respectively (FIG. 11A, right panel), or that more GCase protein was required from the respective mutants to achieve the same enzyme activity as the WT. […] For the other mutants this ranged from 22-36%. This compares to ˜0% for the WT or D399E GCases Immunoaffinity anti-GCase column purification of the various GCases from media confirmed the excesses of these mutant GCases and the inability to detect WT or D399E GCases in media (data not shown).

B1: Human WT: wild type human GCase (acid β-glucosidase, SEQ ID NO 2) expressed in Gba1−/− cells (protein, listed as Homo sapiens)
chain: ARPCIPKSFGYSSVVCVCNATYCDSFDPPTFPALGTFSRYESTRSGRRMELSMGPIQANHTGTGLLLTLQPEQKFQKVKGFGGAMTDAAALNILALSPPAQNLLLKSYFSEEGIGYNIIRVPMASCDFSIRTYTYADTPDDFQLHNFSLPEEDTKLKIPLIHRALQLAQRPVSLLASPWTSPTWLKTNGAVNGKGSLKGQPGDIYHQTWARYFVKFLDAYAEHKLQFWAVTAENEPSAGLLSGYPFQCLGFTPEHQRDFIARDLGPTLANSTHHNVRLLMLDDQRLLLPHWAKVVLTDPEAAKYVHGIAVHWYLDFLAPAKATLGETHRLFPNTMLFASEACVGSKFWEQSVRLGSWDRGMQYSHSIITNLLYHVVGWTDWNLALNPEGGPNWVRNFVDSPIIVDITKDTFYKQPMFYHLGHFSKFIPEGSQRVGLVASQKNDLDAVALMHPDGSAVVVVLNRSSKDVPLTIKDPAVGFLETISPGYSIHTYLWRRQ
binding of GCase variant to ldLIMP2, in words (ldLIMP2; listed as WT): nearly complete binding; also recorded: bound similarly | localization of GCase DSPIIV variants to the lysosome (Lamp1 / LIMP-2 co-localization), in words ([1]; listed as WT): targeted to the lysosomes; also recorded: co-localization of GCase (FITC) with either Lamp 1 (Red) or LIMP-2 | Total GCase (Gba1−/− cells; cellular + media, mean ± SD, n = 3): 23 ± 4 ng | % Secreted (Gba1−/− cells): ~0% | Cellular GCase (Gba1−/− cells; total ng, mean ± SD, n = 3): 23 ± 4 ng | Media GCase (Gba1−/− cells; total ng, mean ± SD, n = 3): 0 ng

localization of GCase DSPIIV variants to the lysosome (Lamp1 / LIMP-2 co-localization), in words [1]: targeted to the lysosomes
B2: D399E: human GCase variant with charge conserved D399E (ESPIIV, SEQ ID NO 20) (protein)
chain: ARPCIPKSFGYSSVVCVCNATYCDSFDPPTFPALGTFSRYESTRSGRRMELSMGPIQANHTGTGLLLTLQPEQKFQKVKGFGGAMTDAAALNILALSPPAQNLLLKSYFSEEGIGYNIIRVPMASCDFSIRTYTYADTPDDFQLHNFSLPEEDTKLKIPLIHRALQLAQRPVSLLASPWTSPTWLKTNGAVNGKGSLKGQPGDIYHQTWARYFVKFLDAYAEHKLQFWAVTAENEPSAGLLSGYPFQCLGFTPEHQRDFIARDLGPTLANSTHHNVRLLMLDDQRLLLPHWAKVVLTDPEAAKYVHGIAVHWYLDFLAPAKATLGETHRLFPNTMLFASEACVGSKFWEQSVRLGSWDRGMQYSHSIITNLLYHVVGWTDWNLALNPEGGPNWVRNFVESPIIVDITKDTFYKQPMFYHLGHFSKFIPEGSQRVGLVASQKNDLDAVALMHPDGSAVVVVLNRSSKDVPLTIKDPAVGFLETISPGYSIHTYLWRRQ
Pearson Indices for co-localization to the lysosome, in words ([1]; DSPIIV variants, FIG. 10B): did not alter the co-localization compared to WT | localization of GCase DSPIIV variants to the lysosome (Lamp1 / LIMP-2 co-localization), in words ([1]; listed as E399): did not alter the cellular localization or secretion of GCase | localization of GCase DSPIIV variants to the lysosome (Lamp1 / LIMP-2 co-localization), in words ([1]; listed as ESPIIV): co-localization of GCase (FITC) with either Lamp 1 (Red) or LIMP-2 | GCase activity in cell lysates, in words (Gba1−/− fibroblasts; cell lysates, FIG. 11C): equal intracellular activities | GCase activity in the media / secretion, in words (Gba1−/− fibroblasts): no media activity above background | GCase activity in the media / secretion, in words (Gba1−/− fibroblasts; listed as E399): did not alter the cellular localization or secretion of GCase | GCase activity in the media / secretion, in words (Gba1−/− fibroblasts; listed as ESPIIV): did not alter secretion | CRIM specific activity, in words [2]: minor change in CRIM specific activity | % Secreted (Gba1−/− cells): ~0%

binding of GCase variant to ldLIMP2, in words (ldLIMP2): somewhat less binding | enzyme localized to the lysosome ([1]; TKD sequence variants, FIG. 5): about 50%
B3: AKD: human GCase with TKD (407-409) replaced by AKD, as named in figure legends (protein, UniProt P04062 40-536, looked up, variant T407A)
Lysosomal acid …: ARPCIPKSFGYSSVVCVCNATYCDSFDPPTFPALGTFSRYESTRSGRRMELSMGPIQANHTGTGLLLTLQPEQKFQKVKGFGGAMTDAAALNILALSPPAQNLLLKSYFSEEGIGYNIIRVPMASCDFSIRTYTYADTPDDFQLHNFSLPEEDTKLKIPLIHRALQLAQRPVSLLASPWTSPTWLKTNGAVNGKGSLKGQPGDIYHQTWARYFVKFLDAYAEHKLQFWAVTAENEPSAGLLSGYPFQCLGFTPEHQRDFIARDLGPTLANSTHHNVRLLMLDDQRLLLPHWAKVVLTDPEAAKYVHGIAVHWYLDFLAPAKATLGETHRLFPNTMLFASEACVGSKFWEQSVRLGSWDRGMQYSHSIITNLLYHVVGWTDWNLALNPEGGPNWVRNFVDSPIIVDIAKDTFYKQPMFYHLGHFSKFIPEGSQRVGLVASQKNDLDAVALMHPDGSAVVVVLNRSSKDVPLTIKDPAVGFLETISPGYSIHTYLWRRQ
GCase activity in the media / secretion, in words (Gba1−/− fibroblasts): greatest increases
